Results: the DeepSol protein solubility set

Assay: soluble on expression in E. coli; label from the status in PepcDB or PDB records
With “MAICKVFRNYCKENDIQLHQANFSLSYDTNIPRQTGLSGSSAIVSAALNCLLDFYNVRHLIKVQVRPNIVLSAEKELGIVAGLQDRVAQVYGGLVHMDFSKEHMDKLGHGIYTPMDISLLPPLHLIYAENPSDSGKVHSMVRQRWLDGDEFIISSMKEVGSLAEEGRTALLNKDHSKLVELMNLNFDIRRRMFGDECLGAMNIEMVEVARRVGAASKFTGSGGAVVVFCPEGPSQVKLLEEECRKAGFTLQPVKIAPSCLNDSDIQTL” the “soluble on expression in E. coli” value was “not soluble”.
With “MAICPELAQTDKSALANLSDETETLKNFTDEVQTSSSFSSSGGRQSSPLTSGSKLEREKQTPSLEQGDTQSELLDYKNYEKKLSKKWINYLKLKDSNFERHQPDTKLPTEITRVSDEELNALQSYCTMKINLIHRRGDSKKKTSSRHKKLHLGLDVEASERDAFSCTVPDELLNRIYFKNMRTTPKQEAAAKQHISYQCPYCNRKRAELALSAFLKQKKTLLESFLLQERIDEHLHTKDFLTRIGEAHQDFPRLSDDPRIIWKRLTEKSHIRYSGFERSETEQKMQRDGNSACHLPFSLPFLKRLTLIKPELVIVNDNV” the “soluble on expression in E. coli” value was “not soluble”.
With “MAIFTDPIREHADFGPGDAEWLHLLVGDWQMVADLAFADLALWFPHPEFGYIALAHVRPSTSHTVFHADFVGEGIRSDLRPLVDKAWNSRSIERSSETSWSSEMALRVEAVPMVRNGRTLAVVTSHMDLSSSRMPSRLELTYRQCAYDLLRMGTLGLWPDFASPTGSRRGAPRVGDGLIRLDAEGIVQYASPNGVSAFRRLGEVESLEGRSLAEVTAGLLKDRRMVDETLPLVVTGRMPWRSEIESRGVSLSLRAIPLRDEQHRFGALVLCRDVSELRRREMELVTKDATIREIHHRVKNNLQTVAALLRMQSRRMVSDEAKQGLEQAMRRVATIALVHETLSQGLTQSVDFDELIGRQFRLSAEVASPSQQVRTERSGLFGELPSDFATPLALVINELVTNAVEHGLEGRTGTVWLLADRADGDGNDEFLTVTIADDGVGLPDGQYTEGLGLQIVRTLVTSELGGSIQWSPREGGGTAVEIVLNLARA” the “soluble on expression in E. coli” value was “not soluble”.
With “MAIIFNPNKKIFTLQTAHTTYQMQVDRLGYLLHLYYGAKSTCDMDYVLTYADRGFSGNPYAAGMNRTYSLDTLPQEYPTLGTGDFRNIALDIKNEQGTESVELLYKSYEIRDGKYALKGLPAVWASDDEAQTLEIVLGDDIAGVEVHLLYGVLEACDVITRSVLIKNTGSGNITIEKAHAACLDMVYGDYDVIRFYGKHAMERNLERTHLGHGTLSFGSRRGTSSHQYNPAVILAQRDTTENAGDCYGMLFVYSGNFSCEAEKDQINQTRLLMGLSDELFSYPLAAGETFTVPEVIMSYSADGFSQLSHQYHTCISEHVCRSRFAHEVRPVLINSWEAAYFDFTGDTIVDLAKEAASLGIDMVVMDDGWFGKRDDDNSSLGDWFVNEKKLGGTLSELIDRVHAQGVKFGIWIEPEMVNEDSNLYREHPDWAIQIPGKLPVRSRNQLILDFSRKEVRDNIFNQICAVFDQGKIDYVKWDMNRSMADVYAGNLAYDYVLGVYDFMERLVTRYPDILLEGCSGGGGRFDAGMLYYSPQIWCSDNTDAINRTRIQYGTSFFYPVSSMGAHVSAVPNHQTGRVTSLKTRGITAMAGTFGYELNPALLSDEEKEEIREQIKTFKKYEMLINEGTYWRLTSPFEDEVAAWMSVSRTKDRALVSVVRLYAEANAAACYVKLKGLESDAVYIEENTGRQYTGAALMNAGIPLPFAVKEYEAYQFSFIRLDEAKKLYDEIKKVCGNLKLNEADTADSASDNRLEHHHHHH” the “soluble on expression in E. coli” value was “soluble”.
For “MAIIRQRYQEQLDDLIKELRRLGANVYVSIENGIKSLSIDDRGFARQTVKNDKHINQLNYDINERVIMLITKQQPIASDLRMMISSLKIASDLERIGDNASSIANIRLRTKITDDYVLTRLKTMGKLAMLMLKDLDQAFKKKDTVLIREIIERDEDIDDLYSHIINATYLIDNDPFVAAQAHLAARHLERIGDHIINIAESVYFYLTGTHYEQ”, the “soluble on expression in E. coli” value was “not soluble”.
For “MAILAARIAVSNLHKETKKVFSDVMEDLYNYINPHNGKHSPMVAKSTLDIVLANKDRLNSAIIYDRDFSYNYFGFKTLERSYLLKINGKVAERPQHMLMRVSVGIHKEDIDAAIETYNLLSERWFTHASPTLFNAGTNRPQLSSCFLLSMKDDSIEGIYDTLKQCALISKSAGGIGVAVSCIRATGSYIAGTNGNSNGLVPMLRVYNNTARYVDQGGNKRPGAFAIYLEPWHLDIFEFLDLKKNTGKEEQRARDLFFALWIPDLFMKRVETNQDWSLMCPNECPGLDEVWGEEFEKLYASYEKQGRVRKVVKAQQLWYAIIESQTETGTPYMLYKDSCNRKSNQQNLGTIKCSNLCTEIVEYTSKDEVAVCNLASLALNMYVTSEHTYDFKKLAEVTKVVVRNLNKIIDINYYPVPEACLSNKRHRPIGIGVQGLADAFILMRYPFESAEAQLLNKQIFETIYYGALEASCDLAKEQGPYETYEGSPVSKGILQYDMWNVTPTDLWDWKVLKEKIAKYGIRNSLLIAPMPTASTAQILGNNESIEPYTSNIYTRRVLSGEFQIVNPHLLKDLTERGLWHEEMKNQIIACNGSIQSIPEIPDDLKQLYKTVWEISQKTVLKMAAERGAFIDQSQSLNIHIAEPNYGKLTSMHFYGWKQGLKTGMYYLRTRAHHHHHH”, the “soluble on expression in E. coli” value was “soluble”.
In the case of “MAILGLGTDIVEISRIQAVVERTGERLARRILSPSEWQHYQQHQQPVRFLAKRFAVKEAAAKAFGTGIRNGLAFNQFEVVNDALGKPTLRLHSRAAELAVELGVKSLHVTLADERRYACATVIIES”, the “soluble on expression in E. coli” value is reported as “not soluble”.
For “MAINLNTFAKVSADWYELKKSQPLAENTIKDIWRSLEKYVFPFIGTLPITQLTARHFISALEPIQASGKLETVKRVSQRINEVMDYAVNSGLIPANPAAKIRKAFQTPVKTHMLEHHHHHH”, the “soluble on expression in E. coli” value was “not soluble”.
With “MAKAKAAPKKSVKKVEKSPSPEDSGIRRSGRQRIEMGKYEEGFDRHELEMVLRASLNEANQQGIKVPSTSSTASASAPAPVKKEIKPKNKPAPVPVVEKKRTIPSKKERDAERKALAAAAAAAATLTSMKKAPIKKSVPSTSSEADSTTPKKKGSAVKAKKVTIKTPSSEPAELTSSAAPVPVAVPEVPTAEATTSATTTPTTTNATIVKKEETKAEQPVKKVVKKKAISKKPPTTTNVTSTSDSSAAAAAAKKKKKPVVPKLSTKPTKQYLENEKQMRLMATQKCTYKEPKSLEKRIYFIPFYSLKLAKKNDQISYLNLISFIHKNLFFNF” the “soluble on expression in E. coli” value was “soluble”.
In the case of “MAKAKTQFVCQNCGTVHNRWAGKCEGCGEWNTIVEEDPMGGIGSGPGKVPKKGRPVTLTSLSGEIEEAPRIPTGISELDRATGGGFVRGSAVLIGGDPGIGKSTLLMQAAAALSRRGHRVIYVSGEEAVAQVRLRAQRLGSADTDVLLAAETNVEDILATVSEGKRPDLIIIDSIQTLWSDTADSAPGTVTQVRTGVQAMIRFAKQTGATMVLVGHVTKEGQIAGPRVVEHMVDAVLYFEGDRGHHYRILRTVKNRFGPTDEIGVFEMSDGGLREVSNPSELFLGERNEKSPGAAVFAGIEGTRPVLVEVQALVAATSLGTPRRAVVGWDSSRLAMILAVLEAHCGVKLGQHDVYLNVAGGYRISEPAADMAIASALVSSLAGLALPADCVYFGEISLSGAVRPVAHTVQRLKEAEKLGFSAALLPSGSAELPKAGKGRWTEIESLPDLVAHIAGSGNRFKQVEDDEY”, the “soluble on expression in E. coli” value is reported as “not soluble”.
For “MAKARAIVITGNGTNCEMEAAHACRLGGFDETVIAHISDILTGEIRLDDFHFLNLTGGFLDGDDLGSAKAQANRFRYARVDDLEEHLIDQIIRFIDAGKLILGVCNGFQLMTKMGLLPAVDGAYLAQTATLTFNACGRFQDRWVYLKVDQASPSIYTKGVETGLYLPIRHGEGKFVVDSPATLAAIEAKHLAVFTYSDETYSAPTMEFPLNPNGSVNAIAAVCNESGRLMGMMPHPEAFLHRTNHPRWTREDLPEEGDGLVLFRNAADYAKANLLLEHHHHHH”, the “soluble on expression in E. coli” value was “not soluble”.
With “MAKEIYSKYPMVKYLRKEALPTALCPGCGGGTVLNAFANAIDQLKIDPRDLVVVSGIGCSAWIASPYFLADTLHTTHGRAIAFATGVKVGLPDKYVVVISGDGDLASIGGNHLIHAARRNIDITVILVNNFIYGMTGGQVAPTTPFGAITTTTPYRNIEHPLNIAETVAAAGASYVARWTTAHVYQLIESIKKAITTKGFSLVEVISQCPVQFGRRNKMKQPAEMLRWFLKNSVPISKAKNMSEEELEGKFIVGEFVNRRKPEFVGELNKLIREVQSKFKEE” the “soluble on expression in E. coli” value was “not soluble”.
For “MAKEKKRGFFSWLGLGRQSEEPAAEPLATEKEGVTEQEDVIEQTGVIEPTDVIEQTVEHVISEKTTEAPAENAFIEVELREQVAAVIPTEPNNAIMSEGVPDTLPERAVAESVVAELVETGDNAAIVHDEIIEPITQVTEAGGELSLVKPGIEGDTTEQGGPTDNLPKRSLTEDNLIIDVPTPQAVVEESRVDAVEQPTETSEVEEVEEVEEVEEVEEVEEKIIPVAAQEQERPTKEGFFARLKRSLIKTKQNLGSGFMGLFSGKKIDDDLFEELEEQLLIADVGVETTRKIITSLTEHTSRKQLKDADALYGKLKEEMSEILSKVDKPLDVSGKSPYVILMVGVNGVGKTTTIGKLARQFQAEGKSVMLAAGDTFRAAAVEQLQVWGERNKIAVVAQHTGADSASVIFDAIQAAKARGIDVLLADTAGRLQNKAHLMEELKKIVRVMKKLDGDAPHEVMLTLDASTGQNAVSQAKLFNEAVGLTGITLTKLDGTAKGGVIFAIADQFEIPIRYIGVGEGIEDLRPFKADEFIEALFARED”, the “soluble on expression in E. coli” value was “not soluble”.
For “MAKEKTVYVCSNCGQESPKWVGKCPSCGEWNTYVEEIVRKETTNRRPVSGIETQKAKPVILSEIEADDEPRINMHDDELNRVLGGGLVPGSLVLIGGEPGIGKSTLVMQTVLRMPDKKILYVSGEESARQLKLRADRLSEVSSDCLIVCETSLEQIYVHIKNTSPDLVIIDSIQTISTENIESSPGSIAQVRECSASILRFAKETHTPVLLIGHINKEGSIAGPKVLEHIVDTVLQFEGDQHYMYRILRSIKNRFGSTAELGIYEMRQDGLRQVSNPSELLLSQDHEGMSGVAIASAIEGVRPFLIETQALVSSAVYGNPQRSATGFDIRRMNMLLAVLEKRVGFKLAQKDVFLNIAGGLKVNDPAIDLAVISAILSSNMDAAVEPEVCMAGEIGLSGEIRPVNRIEQRIGEAEKLGFKRFLLPKYNLQGIDTQKLKIELVPVRKVEEAFRALFG”, the “soluble on expression in E. coli” value was “not soluble”.
In the case of “MAKMRISPELKKLIEKYRSVKDTEGMSPAKVYKLVGENENLYLKMTDSRYKGTTYDVEREKDMMLWLEGKLPVPKVLHFERHDGWSNLLMSEADGVLCSEEYEDEQSPEKIIELYAECIRLFHSIDISDCPYTNSLDSRLAELDYLLNNDLADVDSENWEEDTPFKDPRELYDFLKTEKPEEELVFSHGDLGDSNIFVKDGKVSGFIDLGRSGRADKWYDIAFCVRSIREDIGEEQYVELFFDLLGIKPDWEKIKYYILLDELF”, the “soluble on expression in E. coli” value is reported as “soluble”.
In the case of “MAKNKTVFSCTECGGQSPKWQGQCPHCSAWNTLVEAVAAPAAASPRFQSWAANVTKVQKLSEVQTEETPRDPSGIDELDRVLGGGIVRGAVVLIGGDPGIGKSTLLLQALSQIGRSRKVLYVSGEESAQQIALRASRLALDTSSVDLLAEICIENILETLKREQPEVVVIDSIQTLYTEQVTSAPGSVSQVRECAAQLTRMAKQSGITVLLVGHVTKEGSLAGPRVLEHMVDTVLYFEGDSHSSYRMIRAIKNRFGAVNELGVFAMTDRGLKGVSNPSAIFLSSYRDDVAGSCVLVTQEGTRPLLVEIQALVDDCHGFQPKRLTVGLEQNRLSMLLAVLHRHGGVACFDQDVFLNAVGGVKINEPAADLAIILAMVSSLRNKALPEKLVVFGEVGLAGEVRPVTRGQERLKEAAKLGFTRAIVPTANKPRQEIEGLKVLAVDRLDQAVEYCRE”, the “soluble on expression in E. coli” value is reported as “not soluble”.
For “MAKNSKFDRVQVVDKAVDLYWEKGFHGTSMRNLQEVIDMRPGSIYATFGSKEGLFKESLQRYTQSGILHLEQCCHEQKSPLLGLKSFIHNIVVEKRSSAPSGMCMLVKTVTELTNENEELLTEAKRSLKIMESEFEKVLRQAQEIGEIEKEKDTKQLAQFVQVQIAGLRTYARTVDSDLPLQNMLDNMFSHYPF”, the “soluble on expression in E. coli” value was “not soluble”.
With “MAKQDVIELEGTVLDTLPNAMFKVELENGHEILAHVSGKIRMNYIRILPGDKVTVEMSPYDLTRGRITYRYK” the “soluble on expression in E. coli” value was “not soluble”.
